Results reported in patent US10117953B2, “Antibody drug conjugates” (Novartis AG, priority 2013, dated 2018).

What was measured:
primary human mast cells = test: Mast cell apoptosis (Caspase-Glo 3/7); type: cell-based; details: 0.05-100 nM, 1.6 nM rhSCF, 48 h
Procedure: Primary human mast cells were cultured from peripheral human blood according to the methods described by Saito et al., Nature Protocols 2006; 1(4):2178-2183. […] Following 30 min incubation at RT, luminescence was recorded on the BioTek Synergy plate reader (BioTek, Winooski, Vt.).

Mo7e cells = test: Mo7e proliferation assay with GM-CSF (SCF-independent); type: cell-based, human; details: 10 ng/ml GM-CSF, 5 days
Procedure: To evaluate the potential antagonistic properties of the naked antibodies and the ability of the antibody drug conjugates (ADCs) to inhibit the proliferation of a cKIT-expressing cell line, MO7e (DSMZ, Catalog # ACC-104, Braunschweig, Del.) were grown in the presence or absence of cKIT ligand, Stem Cell Factor (SCF), for survival. MO7e cells were grown in either 10 ng/ml human granulocyte-macrophage colony-stimulating factor GM-CSF (R&D Systems Cat#215-GM, Minneapolis, Minn.) or 10 ng/ml human Stem Cell Factor SCF (R&D Systems Cat#255-SC) prior to seeding in 96 well plates (Costar Cat #3904, Corning, Tewksbury, Mass.) at 5000 cells/well in 100 μl dilution medium. A duplicate plate was generated for a day 0 measurement and all plates were incubated in a tissue culture incubator at 37° C. with 5% CO2 overnight. […] Assay plates were shaken gently for 20 min and the resulting luminescence intensity was measured using a Perkin Elmer 1450 Microbeta TriLux® plate reader (Perkin Elmer, Waltham, Mass.). […] Following this incubation period, relative cell viability was determined via the addition of Cell titer Glo reagent as described above. The effect of the ADCs on cell proliferation was calculated using the average of the duplicates as follows: (% Inhibition=(ADC or Ab treated)/(untreated)*100) The % inhibition data was fitted to a 4-parameter logistic equation and IC50 values were determined.

B1: NEG085: anti-cKIT antibody of Table 1; VH SEQ ID NO 82, VL SEQ ID NO 91; derived from 9P3 (antibody, V domains shown)
VH: EVQLVESGGGLVQPGGSLRLSCAASGFAFSGYYMAWVRQAPGKGLEWVANINYPGSSTYYLDSVKGRFTISRDNAKNSLYLQMNSLRAEDTAVYYCARGDYYGTTYWYFDVWGQGTTVTVSS
VL: DIQMTQSPSSLSASVGDRVTITCRASQSISSYLNWYQQKPGKAPKLLIYYTSRLQSGVPSRFSGSGSGTDFTLTISSLQPEDFATYYCQQGRRLWSFGGGTKVEIK
Primary human mast cells
  mast cell apoptosis: do not lead to apoptosis of human primary mast cells ex vivo
Mo7e cells
  effect on cell proliferation: no detrimental effect on cell proliferation
